Measured values reported in patent publication US20070203071A1.

Key:
[1] = molecular target: hP1R (human) (UniProt Q03431); experiment: competition binding, 125I-PTH(1-15) tracer, HKRK-B7 cells
[2] = molecular target: -; experiment: competition binding, 125I-PTH(1-15) tracer, HKRK-B28 cells
[3] = molecular target: wild-type human P1R (human) (UniProt Q03431); experiment: competition binding, 125I-PTH(1-15) tracer, HKRK-B7 cells
Chain of wild-type human P1R (human) (Q03431 27-593): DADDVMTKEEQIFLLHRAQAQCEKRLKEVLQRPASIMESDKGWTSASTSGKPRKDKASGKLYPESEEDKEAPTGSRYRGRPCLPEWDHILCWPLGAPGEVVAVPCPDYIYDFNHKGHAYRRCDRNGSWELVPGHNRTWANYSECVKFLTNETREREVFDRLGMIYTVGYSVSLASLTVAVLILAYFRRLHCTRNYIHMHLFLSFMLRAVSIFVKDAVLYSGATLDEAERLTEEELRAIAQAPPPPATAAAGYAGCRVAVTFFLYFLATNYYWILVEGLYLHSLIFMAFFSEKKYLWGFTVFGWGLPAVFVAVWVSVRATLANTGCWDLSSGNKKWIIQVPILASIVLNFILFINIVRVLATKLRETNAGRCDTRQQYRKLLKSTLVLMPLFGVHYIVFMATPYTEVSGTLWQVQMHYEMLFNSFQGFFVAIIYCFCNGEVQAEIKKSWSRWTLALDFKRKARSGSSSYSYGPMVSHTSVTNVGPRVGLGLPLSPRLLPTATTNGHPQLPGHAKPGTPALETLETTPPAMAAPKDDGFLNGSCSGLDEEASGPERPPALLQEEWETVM

Chain of hP1R (human) (Q03431 27-593): as above
Chain of [Ile^5, Trp^23, Tyr^36]PTHrP(5-36)NH2 (P12272 41-72): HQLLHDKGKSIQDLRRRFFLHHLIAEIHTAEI

| IC50 [2] | Substance | also measured |
| --- | --- | --- |
| – | PTH(1-34) | IC50 [1]: 2 nM |
| 18 nM | [Aib1,3,M]PTH(1-21) | – |
| 750 nM | [Aib3,M]PTH(3-21) | – |
| – | [Ile^5, Trp^23, Tyr^36]PTHrP(5-36)NH2 (from UniProt P12272 41-72) | IC50 [3]: 50 nM |
| 4.8 nM | rPTH(1-34) | – |
